Kd data for one sequence are collected here from article PMC12328718.

The target of this series is T1, SHMT2 K281S-R284S K302S;R305S (UniProt P34897).
T1 sequence: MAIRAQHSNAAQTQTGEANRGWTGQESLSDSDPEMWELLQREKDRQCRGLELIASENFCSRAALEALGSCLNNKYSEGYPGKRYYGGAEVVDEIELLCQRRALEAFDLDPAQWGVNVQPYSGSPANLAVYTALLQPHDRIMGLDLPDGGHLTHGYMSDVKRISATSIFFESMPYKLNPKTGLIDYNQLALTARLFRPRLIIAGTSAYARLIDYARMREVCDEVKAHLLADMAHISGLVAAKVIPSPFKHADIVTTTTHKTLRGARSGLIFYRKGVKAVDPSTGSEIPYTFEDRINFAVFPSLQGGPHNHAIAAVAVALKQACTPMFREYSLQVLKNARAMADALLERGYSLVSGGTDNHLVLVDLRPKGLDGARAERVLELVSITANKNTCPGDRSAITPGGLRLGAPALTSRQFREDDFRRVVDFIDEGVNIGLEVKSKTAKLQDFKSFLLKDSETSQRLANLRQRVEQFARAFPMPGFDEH
The series is described as follows: EMSA. Conditions: EMSA: 20 mM HEPES pH 7.4, 150 mM NaCl, 20 ug/ml BSA, 0.1 ug tRNA, RNase inhibitor, 8% glycerol, 25 C, 30 min; 4% native PAGE in 0.5x TBE.

Consider “GGGAUAAAGAAAAAAGCGGUGAGUGGGCGAACUACAAUUCCCAAAAGGCCACAAAGGGGCCACCACUACGCAUGCGUAGAUCCCUCCCGUUAGCUUUGGCGCCUCAGCGAGCUCUUCUCGCGCAUGCGUUCUCCGAACGGUCUUCUUCCGACAGCUUGCUGCCCUAGACCAGAGUUGGUGGCUGGACCUCCUGCGACUUCCGAGUUGCG [UTR2 RNA]”, for which the Kd worked out at 1600 nM. This counts as single-digit micromolar.
